Test results taken from patent US20190270793A1 (Janssen / Centocor, published 2019).

Tests used:
[1] = biological target: T1, PHF-tau (paired helical filament-tau), partially purified from postmortem cortex of an Alzheimer patient (human, UniProt P10636-8 2-441, limits assumed, hyperphosphorylated (sites not given)); experiment: SPR (ProteOn XPR36 or Biacore T200)
T1 construct: This is an aggregated, hyperphosphorylated brain-derived preparation, not a single defined chain

[2] = biological target: T2, soluble tau (control tau; recombinant 2N4R tau, SEQ ID NO:31) (human, UniProt P10636 2-758); experiment: direct ELISA on 2N4R tau coated at 1 ng/mL, O.D. 450 nm
T2 construct: also called Sol-tau; recombinant WT tau
Protocol: (§1) Binding to recombinant WT (2N4R; SEQ ID NO:31) tau was analyzed by ELISA where full-length Tau protein (1 ng/mL or 10 ng/mL) was directly coated to the plate and incubated with different concentrations of either recombinantly- or hybridoma produced PT82 antibody (FIG. 2). After incubation with antibodies, plates were again washed and 50 μL per well of HRPO labelled anti-mouse antibody (GE Healthcare) (diluted 1:10000 in blocking buffer) was added. After another washing step detection was performed with “One step” TMB (Thermo Scientific) according to the manufacturers' instructions. Plates were analysed in EnVision® 2102 Multilabel Reader (Perkin Elmer, Waltham, Mass., USA). Binding curves were generated using GraphPad Prism7.0 software. […] No substantial difference has been observed between binding profiles of recombinant and hybridoma produced antibodies.

[3] = biological target: T3, 105 124 …; experiment: pepscan-based ELISA on the array of linear 20-mer Tau441 peptides
T3 construct: Linear 20-mer made on the solid support of the pepscan array; also called Tau441 peptide 105-124
T3 peptide: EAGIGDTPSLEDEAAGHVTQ
Protocol: (§2) The binding of antibodies (recombinantly expressed as IgG2a) to each of the synthesized peptides was tested in a pepscan-based ELISA. The peptide arrays were incubated with primary antibody solution (overnight at 4° C.). After washing, the peptide arrays were incubated with a 1/1000 dilution of an appropriate antibody peroxidase conjugate (SBA) for one hour at 25° C. After washing, the peroxidase substrate 2,2′-azino-di-3-ethylbenzthiazoline sulfonate (ABTS) and 20 μl/ml of 3 percent H2O2 were added. After one hour, the color development was measured. The color development was quantified with a charge coupled device (CCD)—camera and an image processing system.

[4] = biological target: T4, 103 122 …; experiment: as above
T4 construct: Linear 20-mer made on the solid support of the pepscan array
T4 peptide: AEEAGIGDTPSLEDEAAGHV
Protocol: as §2

[5] = biological target: T5, 109 128 …; experiment: as above
T5 construct: Linear 20-mer made on the solid support of the pepscan array; also called Tau441 peptide 109-128
T5 peptide: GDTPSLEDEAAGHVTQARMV
Protocol: as §2

[6] = biological target: T6, 121 140 …; experiment: as above
T6 construct: Linear 20-mer made on the solid support of the pepscan array; also called Tau441 peptide 121-140
T6 peptide: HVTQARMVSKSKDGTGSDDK
Protocol: as §2

[7] = biological target: T7, 111 130 …; experiment: as above
T7 construct: Linear 20-mer made on the solid support of the pepscan array; also called Tau441 peptide 111-130
T7 peptide: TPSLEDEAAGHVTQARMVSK
Protocol: as §2

[8] = biological target: T8, 119 138 …; experiment: as above
T8 construct: Linear 20-mer made on the solid support of the pepscan array
T8 peptide: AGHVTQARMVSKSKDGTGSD
Protocol: as §2

[9] = biological target: T9, 113 132 …; experiment: as above
T9 construct: Linear 20-mer made on the solid support of the pepscan array; also called Tau441 peptide 113-132
T9 peptide: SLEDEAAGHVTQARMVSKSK
Protocol: as §2

[10] = biological target: T10, 107 126 …; experiment: as above
T10 construct: Linear 20-mer made on the solid support of the pepscan array; also called Tau441 peptide 107-126
T10 peptide: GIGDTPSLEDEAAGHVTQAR
Protocol: as §2

[11] = biological target: T11, 115 134 …; experiment: as above
T11 construct: Linear 20-mer made on the solid support of the pepscan array; also called Tau441 peptide 115-134
T11 peptide: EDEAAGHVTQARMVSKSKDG
Protocol: as §2

[12] = biological target: T12, 117 136 …; experiment: as above
T12 construct: Linear 20-mer made on the solid support of the pepscan array; also called Tau441 peptide 117-136
T12 peptide: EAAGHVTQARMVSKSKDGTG
Protocol: as §2

[13] = biological target: T2, soluble tau (control tau; recombinant …); experiment: direct ELISA on 2N4R tau coated at 10 ng/mL, O.D. 450 nm
Protocol: as §1

[14] = biological target: T2, soluble tau (control tau; recombinant …); experiment: SPR (ProteOn XPR36 or Biacore T200); central value of the cell
[15] = biological target: T2, soluble tau (control tau; recombinant …); experiment: ELISA on coated soluble tau, anti-human Fc:HRP, 5-fold dilutions from 5 ug/ml
Protocol: Colonies from this electroporation were picked for the ELISA screen and assessment of Fab expression. Briefly, Maxisorp 96 well plates were coated with soluble Tau protein. Fab colonies were grown in 2×YT media and Fab expression was induced with IPTG. ELISA plates were washed and Fab secreted into the E. coli media was added to each ELISA plate. Plates were washed and Anti-Fab′2:HRP (Jackson ImmunoResearch) was added to the ELISA plates. Plates were washed and chemiluminescent detection reagent was added and plates were read on a Perkin Elmer EnVision plate reader for luminescence.
Positive clones were sequenced in both VH and VL. Unique sequences were cloned into IgG gene expression constructs for expression and purification as full length IgG1 molecules. IgG constructs were transfected into CHO-Expi cells and IgG protein was purified using MabSelectSure resin. Antibodies were then tested in an ELISA for binding to soluble Tau, using anti-human Fc:HRP (Jackson ImmunoResearch), to detect IgG binding.
The ELISA was done as described for Fabs except that antibodies were tested at five 5-fold dilutions starting at 5 μg/mL in PGS and anti-human Fc:HRP (Jackson ImmunoResearch) was used to detect IgG binding.

T2 sequence (P10636 other isoform, or with tags, fused parts or gaps limits assumed): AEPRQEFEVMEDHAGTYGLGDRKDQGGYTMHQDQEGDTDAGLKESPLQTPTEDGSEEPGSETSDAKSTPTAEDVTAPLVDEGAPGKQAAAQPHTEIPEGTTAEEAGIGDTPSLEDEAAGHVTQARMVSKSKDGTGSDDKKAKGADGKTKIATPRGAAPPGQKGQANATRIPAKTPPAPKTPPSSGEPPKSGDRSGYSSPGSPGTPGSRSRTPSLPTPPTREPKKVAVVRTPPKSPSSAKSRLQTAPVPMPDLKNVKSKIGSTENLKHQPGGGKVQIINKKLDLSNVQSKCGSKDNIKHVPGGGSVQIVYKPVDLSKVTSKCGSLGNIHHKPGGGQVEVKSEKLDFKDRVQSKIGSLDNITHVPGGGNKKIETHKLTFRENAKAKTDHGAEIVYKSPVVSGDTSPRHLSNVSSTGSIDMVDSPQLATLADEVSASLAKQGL
T1 sequence (P10636 other isoform, or with tags, fused parts or gaps limits assumed): as above

B1: PT82 mAb, recombinantly expressed (mouse IgG2a/kappa) (antibody, V domains shown)
VH: EVKLEESGGGLVQPGGSMKLSCVASGFTFSNYWMNWIRQSPEKGLEWVAQIRLQSDNYATRYAESVKGRFTISRDESKTSVYLQMNNLRTEDTGIYYCTGGTTYWGQGTLVTVSA
VL: DIVMTQSQKFMSTSVGDRVSITCKASQNVGTAVAWYQQKPGQSPKLLIYSASIRYTGVPDRFTGSGSGTDFTLTINYMQSEDLADYFCQQFSSYPYTFGGGTKLEIK
notes: also called recombinant PT82; murine PT82
- Kd [1]: 2.85 nM
- EC50 (read off the curve) [2]: ~0.05 µg/mL
- pepscan ELISA signal (PT82) [3]: 2900
- pepscan ELISA signal (PT82) [4]: 68
- pepscan ELISA signal (PT82) [5]: 2920
- pepscan ELISA signal (PT82) [6]: 68
- pepscan ELISA signal (PT82) [7]: 2930
- pepscan ELISA signal (PT82) [8]: 2910
- pepscan ELISA signal (PT82) [9]: 2930
- pepscan ELISA signal (PT82) [10]: 2920
- pepscan ELISA signal (PT82) [11]: 2920
- pepscan ELISA signal (PT82) [12]: 2920
- EC50 (read off the curve) [13]: ~0.01 µg/mL

B2: PT82 Fab (chimeric: mouse variable domains on human IgG1/kappa constant domains, His tag at the C-terminus of the heavy chain) (Fab, V domains shown)
VH: EVKLEESGGGLVQPGGSMKLSCVASGFTFSNYWMNWIRQSPEKGLEWVAQIRLQSDNYATRYAESVKGRFTISRDESKTSVYLQMNNLRTEDTGIYYCTGGTTYWGQGTLVTVSA
VL: DIVMTQSQKFMSTSVGDRVSITCKASQNVGTAVAWYQQKPGQSPKLLIYSASIRYTGVPDRFTGSGSGTDFTLTINYMQSEDLADYFCQQFSSYPYTFGGGTKLEIK
notes: The Fab has mouse variable domains fused to human IgG1/kappa constant domains, with a His tag at the C-terminus of the heavy chain; also called Fab fragment of PT82
- Kd [1]: 5.01 nM
- Kd [14]: 1.84 nM

B3: PT82 from hybridoma supernatant (hybridoma-produced mouse monoclonal antibody) (antibody, V domains shown)
VH: EVKLEESGGGLVQPGGSMKLSCVASGFTFSNYWMNWIRQSPEKGLEWVAQIRLQSDNYATRYAESVKGRFTISRDESKTSVYLQMNNLRTEDTGIYYCTGGTTYWGQGTLVTVSA
VL: DIVMTQSQKFMSTSVGDRVSITCKASQNVGTAVAWYQQKPGQSPKLLIYSASIRYTGVPDRFTGSGSGTDFTLTINYMQSEDLADYFCQQFSSYPYTFGGGTKLEIK
notes: This is the native hybridoma antibody; also called hybridoma produced PT82
- EC50 (read off the curve) [2]: ~0.02 µg/mL
- EC50 (read off the curve) [13]: ~0.004 µg/mL

B4: PT1B779 (humanized PT82, full length IgG1) (antibody, V domains shown)
VH: EVQLVESGGGLVQPGGSLRLSCAASGFTFSNYWMNWIRQAPGKGLEWVGQIRLQDDNYATRYAASVKGRFTISRDDSKNSVYLQMNSLKTEDTAVYYCTGGTTYWGQGTLVTVSS
VL: DIQMTQSPSFLSASVGDRVTITCKASQNVGTKVAWYQQKPGKAPKLLIYSASIRYTGVPSRFSGSGSGTEFTLTISSMQPEDFATYYCQQFSSYPYTFGQGTKLEIK
- binding result [15]: binds

B5: PT1B778 (humanized PT82, full length IgG1) (antibody, V domains shown)
VH: EVQLVESGGGLVQPGGSLRLSCAASGFTFSNYWMNWIRQAPGKGLEWVGQIRLQSDNYVTRYAASVKGRFTISRDDSKNSVYLQMNSLKTEDTAVYYCTGGTTYWGQGTLVTVSS
VL: DIQMTQSPSFLSASVGDRVTITCKASQNVGTRVAWYQQKPGKAPKLLIYSASIRYTGVPSRFSGSGSGTEFTLTISSMQPEDFATYYCQQFSSYPYTFGQGTKLEIK
- binding result [15]: binds

B6: PT1B780 (humanized PT82, full length IgG1) (antibody, V domains shown)
VH: EVQLVESGGGLVQPGGSLRLSCAASGFTFSNYWMNWIRQAPGKGLEWVGQIRLQSDNYATRYAASVKGRFTISRDDSKNSLYLQMNSLKTEDTAVYYCTGGTTYWGQGTLVTVSS
VL: DIQMTQSPSFLSASVGDRVTITCKASQNVGTKVAWYQQKPGKAPKLLIYSASIRYTGVPSRFSGSGSGTEFTLTISSLQPEDFATYYCQQFSSYPYTFGQGTKLEIK
- binding result [15]: binds

B7: PT1B782 (humanized PT82, full length IgG1) (antibody, V domains shown)
VH: EVQLVESGGGLVQPGGSLRLSCAASGFTFSNYWMNWIRQAPGKGLEWVGQIRLQYDNYATRYAASVKGRFTISRDDSKNSVYLQMNSLKTEDTAVYYCTGGTTYWGQGTLVTVSS
VL: DIQLTQSPSFLSASVGDRVTITCKASQNVGTKVAWYQQKPGKAPKLLIYSASIRYTGVPSRFSGSGSGTEFTLTISSMQPEDFATYYCQQFSSYPYTFGQGTKLEIK
- binding result [15]: binds

B8: PT1B781 (humanized PT82, full length IgG1) (antibody, V domains shown)
VH: EVQLVESGGGLVQPGGSLRLSCAASGFTFSNYWMNWIRQAPGKGLEWVGQIRLQRDNYATRYAASVKGRFTISRDDSKNSVYLQMNSLKTEDTAVYYCTGGTTYWGQGTLVTVSS
VL: DIQMTQSPSFLSASVGDRVTITCKASQNVGTKVAWYQQKPGKAPKLLIYSASIRYTGVPSRFSGSGSGTEFTLTISSMQPEDFATYYCQQFSSYPYTFGQGTKLEIK
- binding result [15]: binds
